Here are results for three molecules from PMC8410842, “Heimdallarchaea encodes profilin with eukaryotic-like actin regulation and polyproline binding” (Communications Biology, 2021).

The target in one test is T1, ΔN-heimProfilin (Candidatus Heimdallarchaeota archaeon LC_3, UniProt A0A1Q9NL85).
T1 construct: gene HeimC3_27980; residues 1-23 (N-terminal extension) deleted; E. coli Rosetta DE3; His6-SUMO tag cleaved with Ulp1; 15N labelled; PDB 6YRR is the full-length parent
The test can be described thus: NMR 1H-15N TROSY-HSQC titration. The class given is binding. Conditions: 25 mM Tris-HCl pH 7.5, 50 mM NaCl, 5% glycerol, 298 K; acyl chains not given.

Test [1] concerns the target both the full-length protein and ΔN-thorProfilin. The test can be described thus: NMR titration; 1H-15N TROSY-HSQC; fixed thorProfilin or ΔN-thorProfilin (200 μM), increasing polyproline … (0, 5, 7 mM in the legend); 25 mM Tris-HCl pH 6.8, 150 mM NaCl; KD from fits of chemical shifts of a few residues.
For test [2] the target is unchanged. The test is described as above. The source holds these as a separate data set.
The target in test [3] is Heimdallarchaeota LC3 profilin (heimProfilin) (Candidatus Heimdallarchaeota archaeon LC_3). As to the kind of experiment: ITC; profilin in the cell (approx. 0.1-0.5 mM), 20 injections of 1.0-14 mM polyproline (VASP); 50 mM Na3PO4 pH 7.5, 50 mM NaCl; 25 °C; triplicates. Background: ITC needs no label: the signal is the heat of the interaction.
Test [4] has as its target ΔN-heimProfilin (Candidatus Heimdallarchaeota archaeon LC_3). The description is as above.

Like-named read-outs stand apart in the source and are kept apart here.

As for PIP2, the affinity at ΔN-heimProfilin is on record as ~ 0.5–1 ± 0.3 mM. One may read the Kd as the free concentration of one partner at which half of the binding sites on the other are occupied at equilibrium, for simple one-to-one binding. Take PPPAPPLPAAQ [polyproline from VASP (…)]: the figures for the dissociation constant Kd in test [1] and in test [2] were 250 to 500 µM and 200 to 500 µM, respectively. With GAGGGPPPAPPLPAAQ [polyproline motif of VASP (…)], the Kd in test [3] is 3300 µM; in test [4], 300 µM.
